How the values were obtained:
[1] = molecular target: HIV-1 Env of pseudovirus 92TH021 (clade CRF01_AE) (HIV-1); assay: cell-based or functional assay
JR-FL gp120 ΔV3 (HIV-1) = assay: ELISA, antigen-coated wells
[2] = molecular target: HIV-1 Env of isolate MGRM-C-027 (clade C pseudovirus) (HIV-1); assay: cell-based or functional assay
[3] = molecular target: HIV-1 Env of isolate MG RM-D-019 (clade D), on pseudovirus (HIV-1); assay: cell-based or functional assay
[4] = molecular target: HIV-1 Env of pseudovirus MGRM-A-009 (subtype A) (HIV-1); assay: cell-based or functional assay
[5] = molecular target: HIV-1 Env of isolate MG RM-D-028 (clade D), on pseudovirus (HIV-1); assay: cell-based or functional assay
[6] = molecular target: HIV-1 Env of isolate MG RM-D-024 (clade D), on pseudovirus (HIV-1); assay: cell-based or functional assay
[7] = molecular target: HIV-1 Env of isolate MGRM-F1-013 (clade F), on pseudovirus (HIV-1); assay: cell-based or functional assay
[8] = molecular target: HIV-1 Env of isolate MGRM-Chronic-B-008 (HIV-1); assay: cell-based or functional assay
[9] = molecular target: HIV-1 Env of pseudovirus 92WR021 (subtype A) (HIV-1); assay: cell-based or functional assay
[10] = molecular target: HIV-1 Env of pseudovirus 92UG031 (subtype A) (HIV-1); assay: cell-based or functional assay
[11] = molecular target: HIV-1 Env of pseudovirus 94UG103 (subtype A) (HIV-1); assay: cell-based or functional assay
[12] = molecular target: HIV-1 Env of isolate APV6 (HIV-1); assay: cell-based or functional assay
[13] = molecular target: HIV-1 Env of pseudovirus 92WR020 (subtype A) (HIV-1); assay: cell-based or functional assay
[14] = molecular target: HIV-1 Env of isolate MG RM-D-016 (clade D), on pseudovirus (HIV-1); assay: cell-based or functional assay
[15] = molecular target: HIV-1 Env of pseudovirus MGRM-A-007 (subtype A) (HIV-1); assay: cell-based or functional assay
[16] = molecular target: HIV-1 Env of isolate MGRM-C-028 (clade C pseudovirus) (HIV-1); assay: cell-based or functional assay
[17] = molecular target: HIV-1 92TH021 Env on pseudotyped virus (HIV-1 isolate 92TH021); assay: cell-based or functional assay
[18] = molecular target: HIV-1 Env of pseudovirus 93WR029 (subtype A) (HIV-1); assay: cell-based or functional assay
[19] = molecular target: HIV-1 Env of isolate MGRM-Chronic-B-023 (HIV-1); assay: cell-based or functional assay
[20] = molecular target: HIV-1 Env of isolate MGRM-C-024 (clade C pseudovirus) (HIV-1); assay: cell-based or functional assay
[21] = molecular target: HIV-1 Env of isolate MGRM-F1-012 (clade F), on pseudovirus (HIV-1); assay: cell-based or functional assay
[22] = molecular target: HIV-1 Env of isolate MGRM-C-026 (clade C pseudovirus) (HIV-1); assay: cell-based or functional assay
[23] = molecular target: HIV-1 Env of isolate 92UG114 (clade D), on pseudovirus (HIV-1); assay: cell-based or functional assay
[24] = molecular target: HIV-1 94UG103 Env on pseudotyped virus (HIV-1 isolate 94UG103); assay: cell-based or functional assay
[25] = molecular target: HIV-1 Env of isolate MG RM-D-014 (clade D), on pseudovirus (HIV-1); assay: cell-based or functional assay
[26] = molecular target: HIV-1 Env of isolate MG RM-D-002 (clade D), on pseudovirus (HIV-1); assay: cell-based or functional assay
[27] = molecular target: HIV-1 Env of isolate MGRM-Chronic-B-012 (HIV-1); assay: cell-based or functional assay
[28] = molecular target: HIV-1 ADA Env (HIV-1 ADA); assay: cell-based or functional assay
[29] = molecular target: HIV-1 Env of pseudovirus 92WR024 (subtype A) (HIV-1); assay: cell-based or functional assay
[30] = molecular target: HIV-1 Env of isolate MGRM-Chronic-B-018 (HIV-1); assay: cell-based or functional assay
[31] = molecular target: HIV-1 Env of pseudovirus 92RW008 (subtype A) (HIV-1); assay: cell-based or functional assay
[32] = molecular target: aMLV envelope on pseudotyped virus (negative control) (aMLV); assay: cell-based or functional assay
[33] = molecular target: HIV-1 92BR020 Env on pseudotyped virus (HIV-1 isolate 92BR020); assay: cell-based or functional assay
[34] = molecular target: HIV-1 Env of isolate 94UG103 (subtype A) (HIV-1); assay: cell-based or functional assay
[35] = molecular target: HIV-1 Env of isolate 92BR020 (subtype B pseudovirus) (HIV-1); assay: cell-based or functional assay
[36] = molecular target: HIV-1 Env of isolate 93MW959 (HIV-1); assay: cell-based or functional assay

1443_C16 (PG16) (TCN-116) (antibody), sequence (VH): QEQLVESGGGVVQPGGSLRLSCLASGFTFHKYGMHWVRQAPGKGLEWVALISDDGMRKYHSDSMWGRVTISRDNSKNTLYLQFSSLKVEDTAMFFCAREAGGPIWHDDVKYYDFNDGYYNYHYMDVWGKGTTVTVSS
1443_C16 (PG16) (TCN-116) (antibody), sequence (VL): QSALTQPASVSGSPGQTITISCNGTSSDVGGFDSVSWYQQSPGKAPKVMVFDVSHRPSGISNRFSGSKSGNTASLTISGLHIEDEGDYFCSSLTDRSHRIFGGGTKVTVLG
4995_E20 (PGT-142) (antibody), sequence (VH): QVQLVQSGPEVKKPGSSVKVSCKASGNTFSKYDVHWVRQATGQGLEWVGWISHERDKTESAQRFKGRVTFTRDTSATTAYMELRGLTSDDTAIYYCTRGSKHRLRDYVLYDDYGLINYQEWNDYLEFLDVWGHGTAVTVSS
4995_E20 (PGT-142) (antibody), sequence (VL): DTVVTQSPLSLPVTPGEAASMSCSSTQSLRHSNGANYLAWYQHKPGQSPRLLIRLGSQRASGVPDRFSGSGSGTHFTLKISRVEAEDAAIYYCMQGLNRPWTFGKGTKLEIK
4980_N08 (PGT-143) (antibody), sequence (VH): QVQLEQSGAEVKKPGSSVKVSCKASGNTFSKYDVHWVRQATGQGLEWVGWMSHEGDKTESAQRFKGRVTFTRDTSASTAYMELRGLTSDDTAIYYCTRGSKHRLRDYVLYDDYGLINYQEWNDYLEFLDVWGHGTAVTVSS
4980_N08 (PGT-143) (antibody), sequence (VL): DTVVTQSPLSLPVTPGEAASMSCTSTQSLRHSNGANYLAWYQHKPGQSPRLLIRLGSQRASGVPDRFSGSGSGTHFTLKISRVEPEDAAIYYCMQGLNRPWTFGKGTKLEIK
5345_I01 (PGT-137) (antibody), sequence (VH): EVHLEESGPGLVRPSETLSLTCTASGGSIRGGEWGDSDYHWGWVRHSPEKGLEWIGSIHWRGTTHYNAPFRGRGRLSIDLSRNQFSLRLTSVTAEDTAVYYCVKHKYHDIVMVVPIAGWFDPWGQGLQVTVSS
5345_I01 (PGT-137) (antibody), sequence (VL): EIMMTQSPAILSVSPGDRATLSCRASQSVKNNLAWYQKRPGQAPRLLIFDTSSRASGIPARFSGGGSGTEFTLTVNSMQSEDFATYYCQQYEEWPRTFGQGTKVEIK

## 4E10 (antibody)
[1]
  IC50: 1.17 µg/mL

## 5345_I01 (PGT-137) (antibody)
JR-FL gp120 ΔV3 (HIV-1)
  EC50: 0.1 µg/mL

## 1496_C09 (PG9) (TCN-109) (antibody)
[2]
  IC50 (µg/mL), pseudovirus neutralization: 5.36 µg/mL
[3]
  IC50 (µg/mL), pseudovirus neutralization: 0.038 µg/mL
[1]
  IC50: 0.09 µg/mL
[4]
  IC50, pseudovirus neutralization: 0.023 µg/mL
[5]
  IC50 (µg/mL), pseudovirus neutralization: 20.2 µg/mL
[6]
  IC50 (µg/mL), pseudovirus neutralization: 0.038 µg/mL
[7]
  IC50 (µg/mL), pseudovirus neutralization: 1.25 µg/mL
[8]
  IC50 (µg/mL), pseudovirus neutralization: 8.78 µg/mL
[9]
  IC50, pseudovirus neutralization: 0.027 µg/mL
[10]
  IC50, pseudovirus neutralization: 3.6 µg/mL
[11]
  IC50, pseudovirus neutralization: 0.34 µg/mL
[12]
  IC50 (µg/mL), pseudovirus neutralization: 0.181 µg/mL
[13]
  IC50, pseudovirus neutralization: 0.141 µg/mL
[14]
  IC50 (µg/mL), pseudovirus neutralization: 0.098 µg/mL
[15]
  IC50, pseudovirus neutralization: 1.06 µg/mL
[16]
  IC50 (µg/mL), pseudovirus neutralization: 0.067 µg/mL
[17]
  Neutralizing Antibody Assay: IC50; Virus/Ab Incubation 1 hour: 0.0612 µg/mL
  Neutralizing Antibody Assay: IC50; Virus/Ab Incubation 18 hour: 0.0571 µg/mL
[18]
  IC50, pseudovirus neutralization: 0.69 µg/mL
[19]
  IC50 (µg/mL), pseudovirus neutralization: 0.027 µg/mL
[20]
  IC50 (µg/mL), pseudovirus neutralization: 0.227 µg/mL
[21]
  IC50 (µg/mL), pseudovirus neutralization: 0.023 µg/mL
[22]
  IC50 (µg/mL), pseudovirus neutralization: 0.06 µg/mL
[23]
  IC50 (µg/mL), pseudovirus neutralization: 40.6 µg/mL
[24]
  Neutralizing Antibody Assay: IC50; Virus/Ab Incubation 1 hour: 0.334 µg/mL
  Neutralizing Antibody Assay: IC50; Virus/Ab Incubation 18 hour: 0.0942 µg/mL
[25]
  IC50 (µg/mL), pseudovirus neutralization: 0.023 µg/mL
[26]
  IC50 (µg/mL), pseudovirus neutralization: 0.021 µg/mL
[27]
  IC50 (µg/mL), pseudovirus neutralization: 0.2 µg/mL
[28]
  IC50 (ug/ml), pseudovirus neutralization, TZM-bl assay: 0.2 µg/mL
[29]
  IC50, pseudovirus neutralization: 0.258 µg/mL
[30]
  IC50 (µg/mL), pseudovirus neutralization: 0.216 µg/mL
[31]
  IC50, pseudovirus neutralization: 0.006 µg/mL

## 1443_C16 (PG16) (TCN-116) (antibody)
[1]
  IC50: 0.1 µg/mL
[17]
  Neutralizing Antibody Assay: IC50; Virus/Ab Incubation 1 hour: 0.136 µg/mL
  Neutralizing Antibody Assay: IC50; Virus/Ab Incubation 18 hour: 0.0435 µg/mL
[32]
  Neutralizing Antibody Assay: IC50; Virus/Ab Incubation 1 hour: > 50 µg/mL
  Neutralizing Antibody Assay: IC50; Virus/Ab Incubation 18 hour: > 50 µg/mL
[24]
  Neutralizing Antibody Assay: IC50; Virus/Ab Incubation 1 hour: 0.0211 µg/mL
  Neutralizing Antibody Assay: IC50; Virus/Ab Incubation 18 hour: 0.0085 µg/mL
[33]
  Neutralizing Antibody Assay: IC50; Virus/Ab Incubation 1 hour: > 50 µg/mL
  Neutralizing Antibody Assay: IC50; Virus/Ab Incubation 18 hour: > 50 µg/mL
[28]
  IC50 (ug/ml), pseudovirus neutralization, TZM-bl assay: 0.004 µg/mL

## 5343_B08 (PGT-135) (antibody)
JR-FL gp120 ΔV3 (HIV-1)
  EC50: 0.2 µg/mL

## VRC01 (antibody)
[34]
  IC50 (µg/mL), pseudovirus neutralization: 0.285 µg/mL

## 4877_D15 (PGT-122) (antibody)
[35]
  IC50 (µg/mL), pseudovirus neutralization: 0.021 µg/mL
[36]
  neutralization IC50: 0.016 µg/mL

## 4995_E20 (PGT-142) (antibody)
[34]
  IC50 (µg/mL), pseudovirus neutralization: > 50 µg/mL

## 4980_N08 (PGT-143) (antibody)
[34]
  IC50 (µg/mL), pseudovirus neutralization: > 50 µg/mL

## PGV04 (antibody)
[2]
  IC50 (µg/mL), pseudovirus neutralization: 2.76 µg/mL
[3]
  IC50 (µg/mL), pseudovirus neutralization: 0.35 µg/mL
[4]
  IC50, pseudovirus neutralization: 0.033 µg/mL
[5]
  IC50 (µg/mL), pseudovirus neutralization: 1.01 µg/mL
[6]
  IC50 (µg/mL), pseudovirus neutralization: > 50 µg/mL
[7]
  IC50 (µg/mL), pseudovirus neutralization: 0.084 µg/mL
[8]
  IC50 (µg/mL), pseudovirus neutralization: 0.166 µg/mL
[9]
  IC50, pseudovirus neutralization: 0.038 µg/mL
[10]
  IC50, pseudovirus neutralization: 4.46 µg/mL
[11]
  IC50, pseudovirus neutralization: 0.202 µg/mL
[12]
  IC50 (µg/mL), pseudovirus neutralization: 24.2 µg/mL
[13]
  IC50, pseudovirus neutralization: 0.055 µg/mL
[14]
  IC50 (µg/mL), pseudovirus neutralization: 0.201 µg/mL
[15]
  IC50, pseudovirus neutralization: 7.21 µg/mL
[16]
  IC50 (µg/mL), pseudovirus neutralization: 0.149 µg/mL
[18]
  IC50, pseudovirus neutralization: 0.54 µg/mL
[19]
  IC50 (µg/mL), pseudovirus neutralization: 0.139 µg/mL
[20]
  IC50 (µg/mL), pseudovirus neutralization: > 50 µg/mL
[21]
  IC50 (µg/mL), pseudovirus neutralization: 0.25 µg/mL
[22]
  IC50 (µg/mL), pseudovirus neutralization: 0.303 µg/mL
[23]
  IC50 (µg/mL), pseudovirus neutralization: 0.461 µg/mL
[25]
  IC50 (µg/mL), pseudovirus neutralization: 0.194 µg/mL
[26]
  IC50 (µg/mL), pseudovirus neutralization: 0.322 µg/mL
[27]
  IC50 (µg/mL), pseudovirus neutralization: > 50 µg/mL
[29]
  IC50, pseudovirus neutralization: 0.31 µg/mL
[30]
  IC50 (µg/mL), pseudovirus neutralization: 0.164 µg/mL
[31]
  IC50, pseudovirus neutralization: 0.014 µg/mL
